Laboratory results as given in patent US20240301076A1 (CEPHALON, published 2024).

T1: human CXCR2 (human, UniProt P25025 1-360)
T1 construct: also called CXC chemokine receptor 2; hCXCR2
T1 sequence: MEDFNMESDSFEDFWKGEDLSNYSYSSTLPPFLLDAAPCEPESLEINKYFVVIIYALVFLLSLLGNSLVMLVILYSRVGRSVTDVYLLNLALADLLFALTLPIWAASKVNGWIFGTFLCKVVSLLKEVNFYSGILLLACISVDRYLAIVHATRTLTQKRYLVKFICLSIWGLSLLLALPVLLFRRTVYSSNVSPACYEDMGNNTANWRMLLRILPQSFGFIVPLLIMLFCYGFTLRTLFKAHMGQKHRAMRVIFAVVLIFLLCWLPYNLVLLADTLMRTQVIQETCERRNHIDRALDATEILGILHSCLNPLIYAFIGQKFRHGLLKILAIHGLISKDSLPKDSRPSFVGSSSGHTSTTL

B1: BKO-4A8 combinatorial variant 7c (antibody, human IgG4 S228P, lambda, V domains shown)
VH: EVQLLESGGGLVQPGGSLRLSCAASGFTFSSSTQSWVRQPPGKGLEWVSAISGRGRSTYYADSVKGRFTISRDNSRNTLYLQMNSLRAEDTAVYYCAKQKGYWGQGILVTVSS
VL: QSALTQPPSASGSPGQSVTISCIGTSSDVGGYNYVSWYQQHPGKAPKLMIYEVSKRPSGVPDRFSGSKSGNTASLTVSGLQAEDEADYYCSSYAGSNNFGVFGGGTKLTVLG
notes: IgG4 S228P, lambda
B2: BKO-4A8 combinatorial variant 9b (antibody, human IgG4 S228P, lambda, V domains shown)
VH: EVQLLESGGGLVQPGGSLRLSCAASGFTFSSSTQSWVRQAPGKGLEWVSAISGRGRSTYYADSVKGRFTISRDNSKNTLYLQMNSLRAEDTAVYYCAIQKGYWGQGILVTVSS
VL: QSALTQPPSASGSPGQSVTISCIGTSSDVGGYNYVSWYQQHPDKAPKLMIYEVSKRPSGVPDRFSGSKSGNTASLTVSGLQAEDEADYYCSSYAGSNNFGVFGGGTKLTVLG
notes: IgG4 S228P, lambda
B3: BKO-4A8 combinatorial variant 9c (antibody, human IgG4 S228P, lambda, V domains shown)
VH: EVQLLESGGGLVQPGGSLRLSCAASGFTFSSSTQSWVRQAPGKGLEWVSAISGRGRSTYYADSVKGRFTISRDNSKNTLYLQMNSLRAEDTAVYYCAIQKGYWGQGILVTVSS
VL: QSALTQPPSASGSPGQSVTISCIGTSSDVGGYNYVSWYQQHPGKAPKLMIYEVSKRPSGVPDRFSGSKSGNTASLTVSGLQAEDEADYYCSSYAGSNNFGVFGGGTKLTVLG
notes: IgG4 S228P, lambda
B4: BKO-4A8 combinatorial variant 10b (antibody, human IgG4 S228P, lambda, V domains shown)
VH: EVQLLESGGGLVQPGGSLRLSCAASGFTFSSSTMSWVRQAPGKGLEWVSAISGRGRNTYYADSVKGRFTISRDNSRNTLYLQMNSLRAEDTAVYYCAKQKGYWGQGILVTVSS
VL: QSALTQPPSASGSPGQSVTISCIGTSSDVGGYNYVSWYQQHPDKAPKLMIYEVSKRPSGVPDRFSGSKSGNTASLTVSGLQAEDEADYYCSSYAGSNNFGVFGGGTKLTVLG
notes: IgG4 S228P, lambda
B5: BKO-4A8 combinatorial variant 10c (antibody, human IgG4 S228P, lambda, V domains shown)
VH: EVQLLESGGGLVQPGGSLRLSCAASGFTFSSSTMSWVRQAPGKGLEWVSAISGRGRNTYYADSVKGRFTISRDNSRNTLYLQMNSLRAEDTAVYYCAKQKGYWGQGILVTVSS
VL: QSALTQPPSASGSPGQSVTISCIGTSSDVGGYNYVSWYQQHPGKAPKLMIYEVSKRPSGVPDRFSGSKSGNTASLTVSGLQAEDEADYYCSSYAGSNNFGVFGGGTKLTVLG
notes: IgG4 S228P, lambda
B6: BKO-4A8 variant VH I94K (antibody, human IgG4 S228P, lambda, V domains shown)
VH: EVQLLESGGGLVQPGGSLRLSCAASGFTFSSSTMSWVRQAPGKGLEWVSAISGRGRNTYYADSVKGRFTISRDNSRNTLYLQMNSLRAEDTAVYYCAKQMGYWGQGILVTVSS
VL: QSALTQPPSASGSPGQSVTISCIGTSSDVGGYNYVSWYQQHPDKAPKLMIYEVNKRPSGVPDRFSGSKSGNTASLTVSGLQAEDEADYYCSSYAGNNNFGVFGGGTKLTVLG
notes: IgG4 S228P, lambda; parental light chain; also called 4A8 VH I94K
B7: BKO-4A8 variant VH M34H (antibody, human IgG4 S228P, lambda, V domains shown)
VH: EVQLLESGGGLVQPGGSLRLSCAASGFTFSSSTHSWVRQAPGKGLEWVSAISGRGRNTYYADSVKGRFTISRDNSRNTLYLQMNSLRAEDTAVYYCAIQMGYWGQGILVTVSS
VL: QSALTQPPSASGSPGQSVTISCIGTSSDVGGYNYVSWYQQHPDKAPKLMIYEVNKRPSGVPDRFSGSKSGNTASLTVSGLQAEDEADYYCSSYAGNNNFGVFGGGTKLTVLG
notes: IgG4 S228P, lambda; parental light chain; also called 4A8 VH M34H
B8: BKO-4A8 variant VH M34Q (antibody, human IgG4 S228P, lambda, V domains shown)
VH: EVQLLESGGGLVQPGGSLRLSCAASGFTFSSSTQSWVRQAPGKGLEWVSAISGRGRNTYYADSVKGRFTISRDNSRNTLYLQMNSLRAEDTAVYYCAIQMGYWGQGILVTVSS
VL: QSALTQPPSASGSPGQSVTISCIGTSSDVGGYNYVSWYQQHPDKAPKLMIYEVNKRPSGVPDRFSGSKSGNTASLTVSGLQAEDEADYYCSSYAGNNNFGVFGGGTKLTVLG
notes: IgG4 S228P, lambda; parental light chain; also called 4A8 VH M34Q
B9: BKO-4A8 variant VH M96A (antibody, human IgG4 S228P, lambda, V domains shown)
VH: EVQLLESGGGLVQPGGSLRLSCAASGFTFSSSTMSWVRQAPGKGLEWVSAISGRGRNTYYADSVKGRFTISRDNSRNTLYLQMNSLRAEDTAVYYCAIQAGYWGQGILVTVSS
VL: QSALTQPPSASGSPGQSVTISCIGTSSDVGGYNYVSWYQQHPDKAPKLMIYEVNKRPSGVPDRFSGSKSGNTASLTVSGLQAEDEADYYCSSYAGNNNFGVFGGGTKLTVLG
notes: IgG4 S228P, lambda; parental light chain; also called 4A8 VH M96A
B10: BKO-4A8 variant VH M96K (antibody, human IgG4 S228P, lambda, V domains shown)
VH: EVQLLESGGGLVQPGGSLRLSCAASGFTFSSSTMSWVRQAPGKGLEWVSAISGRGRNTYYADSVKGRFTISRDNSRNTLYLQMNSLRAEDTAVYYCAIQKGYWGQGILVTVSS
VL: QSALTQPPSASGSPGQSVTISCIGTSSDVGGYNYVSWYQQHPDKAPKLMIYEVNKRPSGVPDRFSGSKSGNTASLTVSGLQAEDEADYYCSSYAGNNNFGVFGGGTKLTVLG
notes: IgG4 S228P, lambda; parental light chain; also called 4A8 VH M96K
B11: BKO-4A8 variant VH M96Q (antibody, human IgG4 S228P, lambda, V domains shown)
VH: EVQLLESGGGLVQPGGSLRLSCAASGFTFSSSTMSWVRQAPGKGLEWVSAISGRGRNTYYADSVKGRFTISRDNSRNTLYLQMNSLRAEDTAVYYCAIQQGYWGQGILVTVSS
VL: QSALTQPPSASGSPGQSVTISCIGTSSDVGGYNYVSWYQQHPDKAPKLMIYEVNKRPSGVPDRFSGSKSGNTASLTVSGLQAEDEADYYCSSYAGNNNFGVFGGGTKLTVLG
notes: IgG4 S228P, lambda; parental light chain; also called 4A8 VH M96Q
B12: BKO-4A8 variant VH N56S (antibody, human IgG4 S228P, lambda, V domains shown)
VH: EVQLLESGGGLVQPGGSLRLSCAASGFTFSSSTMSWVRQAPGKGLEWVSAISGRGRSTYYADSVKGRFTISRDNSRNTLYLQMNSLRAEDTAVYYCAIQMGYWGQGILVTVSS
VL: QSALTQPPSASGSPGQSVTISCIGTSSDVGGYNYVSWYQQHPDKAPKLMIYEVNKRPSGVPDRFSGSKSGNTASLTVSGLQAEDEADYYCSSYAGNNNFGVFGGGTKLTVLG
notes: IgG4 S228P, lambda; parental light chain; also called 4A8 VH N56S
B13: BKO-4A8 variant VL N52S (antibody, human IgG4 S228P, lambda, V domains shown)
VH: EVQLLESGGGLVQPGGSLRLSCAASGFTFSSSTMSWVRQAPGKGLEWVSAISGRGRNTYYADSVKGRFTISRDNSRNTLYLQMNSLRAEDTAVYYCAIQMGYWGQGILVTVSS
VL: QSALTQPPSASGSPGQSVTISCIGTSSDVGGYNYVSWYQQHPDKAPKLMIYEVSKRPSGVPDRFSGSKSGNTASLTVSGLQAEDEADYYCSSYAGNNNFGVFGGGTKLTVLG
notes: IgG4 S228P, lambda; parental heavy chain; also called 4A8 VL N52S
B14: BKO-4A8 variant VL N94K (antibody, human IgG4 S228P, lambda, V domains shown)
VH: EVQLLESGGGLVQPGGSLRLSCAASGFTFSSSTMSWVRQAPGKGLEWVSAISGRGRNTYYADSVKGRFTISRDNSRNTLYLQMNSLRAEDTAVYYCAIQMGYWGQGILVTVSS
VL: QSALTQPPSASGSPGQSVTISCIGTSSDVGGYNYVSWYQQHPDKAPKLMIYEVNKRPSGVPDRFSGSKSGNTASLTVSGLQAEDEADYYCSSYAGKNNFGVFGGGTKLTVLG
notes: IgG4 S228P, lambda; parental heavy chain; also called 4A8 VL N94K
B15: BKO-4A8 variant VL N94S (antibody, human IgG4 S228P, lambda, V domains shown)
VH: EVQLLESGGGLVQPGGSLRLSCAASGFTFSSSTMSWVRQAPGKGLEWVSAISGRGRNTYYADSVKGRFTISRDNSRNTLYLQMNSLRAEDTAVYYCAIQMGYWGQGILVTVSS
VL: QSALTQPPSASGSPGQSVTISCIGTSSDVGGYNYVSWYQQHPDKAPKLMIYEVNKRPSGVPDRFSGSKSGNTASLTVSGLQAEDEADYYCSSYAGSNNFGVFGGGTKLTVLG
notes: IgG4 S228P, lambda; parental heavy chain; also called 4A8 VL N94S
B16: BKO-4A8 variant VL N94Y (antibody, human IgG4 S228P, lambda, V domains shown)
VH: EVQLLESGGGLVQPGGSLRLSCAASGFTFSSSTMSWVRQAPGKGLEWVSAISGRGRNTYYADSVKGRFTISRDNSRNTLYLQMNSLRAEDTAVYYCAIQMGYWGQGILVTVSS
VL: QSALTQPPSASGSPGQSVTISCIGTSSDVGGYNYVSWYQQHPDKAPKLMIYEVNKRPSGVPDRFSGSKSGNTASLTVSGLQAEDEADYYCSSYAGYNNFGVFGGGTKLTVLG
notes: IgG4 S228P, lambda; parental heavy chain; also called 4A8 VL N94Y

Key:
human CXCR2 [1] = target: T1, human CXCR2; assay: flow cytometry, CXCR2-transfected Expi293F cells
Method: (§1) Harvested cells were resuspended in FACS buffer (1×PBS+0.5% (w/v) bovine serum albumin (BSA)+2 mM EDTA pH 7.2). Approximately 2×10⁵ cells were added per well in a 96-well round-bottomed plate. Cells were pelleted by centrifugation at 400 g for 5 mins at 4° C. and supernatants discarded. 25 μL of each test antibody or control antibody was added to the cells and incubated for 30 minutes at 4° C. Cells were washed twice in 100 μL FACS buffer followed by centrifugation at 400 g for 5 mins at 4° C.
(§2) For detection, 50 μL of secondary antibody (Table 2) was added to relevant samples. Commercially available antibodies that bound to transfected CXCR family members were used as positive controls to ensure that the cells were expressing the receptors. Cells were washed twice in 200 μL of FACS buffer followed by centrifugation at 400 g for 5 mins at 4° C. Before sample acquisition, cells were resuspended in 100 μL of FACS buffer. Samples were acquired using the high throughput sampler on a FACSCanto™ II cytometer (Beckton-Dickinson).
Each heavy chain was co-expressed with each light chain to produce a sequence optimized antibody variant. Antibodies were purified and tested for CXCR2 binding activity as described in General Methods.

human CXCR2 [2] = target: T1, human CXCR2; assay: flow cytometry, CXCR2-transfected Expi293F cells; remark: listed apart in the source
Method: as §1, §2
Each variant heavy chain was co-expressed with the parental light chain and vice versa.

human CXCR2 [3] = target: T1, human CXCR2; assay: cell-based or functional assay

EC50 (human CXCR2 [1]) [pM]	Fold Improvement over 4A8 WT (human CXCR2 [1]) [fold]	Fold change in binding relative to BKO-4A8 (human CXCR2 [2]) [fold]	IC50, CXCL1, Tango assay (human CXCR2 [3]) [pM]	IC50, CXCL8, Tango assay (human CXCR2 [3]) [pM]	Binder
1000	0.5	–	–	–	B1
300	3	–	–	–	B2
6400	0.14	–	–	–	B3
300	1.67	–	–	–	B4
500	1	–	–	–	B5
–	–	0.7	78	71	B6
–	–	0.8	186	107	B7
–	–	1	242	77.6	B8
–	–	1.5	140	126	B9
–	–	1	135	91	B10
–	–	1.5	330	140	B11
–	–	1	158	129	B12
–	–	1	214	126	B13
–	–	1.33	123	113	B14
–	–	1	149	169	B15
–	–	0.5	164	105	B16
